Legend:
[1] = molecular target: Monoscaffoldin (truncated CipA), Cohesin 2-CBM3a (UniProt Q06851)
[2] = molecular target: T1, Monoscaffoldin (truncated CipA), Cohesin 2-CBM3a, Q06851
T1 chain: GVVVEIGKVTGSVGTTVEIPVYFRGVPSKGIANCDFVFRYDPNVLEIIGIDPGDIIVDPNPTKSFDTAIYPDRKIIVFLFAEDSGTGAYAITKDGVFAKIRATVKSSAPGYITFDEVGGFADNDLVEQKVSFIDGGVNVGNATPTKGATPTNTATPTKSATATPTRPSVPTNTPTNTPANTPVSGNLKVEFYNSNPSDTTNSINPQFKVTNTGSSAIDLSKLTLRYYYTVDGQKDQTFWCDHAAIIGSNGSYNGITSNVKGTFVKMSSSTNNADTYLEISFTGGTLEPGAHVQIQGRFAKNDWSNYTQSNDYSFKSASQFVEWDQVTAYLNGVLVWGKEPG

Chimera1 of CbhA (CBM4-Ig-GH9-linker1-CBM3b-Doc)
yield of soluble sugar from Avicel after 119 hour digestion, with the adaptor relative to without it [1]: increased by factors of 1.55 and 1.73

B1: Chimera2 of CbhA (CBM4-Ig-GH9-linker2-CBM3b-Doc) (protein)
chain: LEDNSSTLPPYKNDLLYERTFDEGLCYPWHTCEDSGGKCSFDVVDVPGQPGNKAFAVTVLDKGQNRWSVQMRHRGLTLEQGHTYRVRLKIWADASCKVYIKIGQMGEPYAEYWNNKWSPYTLTAGKVLEIDETFVMDKPTDDTCEFTFHLGGELAATPPYTVYLDDVSLYDPEYTKPVEYILPQPDVRVNQVGYLPEGKKVATVVCNSTQPVKWQLKNAAGVVVLEGYTEPKGLDKDSQDYVHWLDFSDFATEGIGYYFELPTVNSPTNYSHPFDIRKDIYTQMKYDALAFFYHKRSGIPIEMPYAGGEQWTRPAGHIGIEPNKGDTNVPTWPQDDEYAGIPQKNYTKDVTGGWYDAGDHGKYVVNGGIAVWTLMNMYERAKIRGLDNWGPYRDGGMNIPEQNNGYPDILDEARWEIEFFKKMQVTEKEDPSIAGMVHHKIHDFRWTALGMLPHEDPQPRYLRPVSTAATLNFAATLAQSARLWKDYDPTFAADCLEKAEIAWQAALKHPDIYAEYTPGSGGPGGGPYNDDYVGDEFYWAACELYVTTGKDEYKNYLMNSPHYLEMPAKMGENGGANGEDNGLWGCFTWGTTQGLGTITLALVENGLPATDIQKARNNIAKAADRWLENIEEQGYRLPIKQAEDERGGYPWGSNSFILNQMIVMGYAYDFTGDSKYLDGMFDGISYLLGRNAMDQSYVTGYGERPLQNPHDRFWTPQTSKRFPAPPPGIISGGPNSRFEDPTINAAVKKDTPPQKCFIDHTDSWSTNEITVNWNAPFAWVTAYLDEQYTDSETDTPTPTATPAPTVTPTPTPAPTPTPTPTPTATPTPTPTPTPTATPTVTATPTPTPSSTPVKVQYLCENTQTSTQEIKGKFNIVNTGNRDYSLKDIVLRYYFTKEHNSQLQFICYYTPIGSGNLIPSFGGSGDEHYLQLEFKDVKLPAGGQTGEIQFVIRYADNSFHDQSNDYSFDPTIKAFQDYGKVTLYKNGELVWGTPPGGTEPEEPEEPAIVYGDCNDDGKVNSTDVAVMKRYLKKENVNINLDNADVNADGKVNSTDFSILKRYVMKNIEELPYR
yield of soluble sugar from Avicel after 119 hour digestion, with the adaptor relative to without it [2]: increased by factors of 1.55 and 1.73

B2: wild-type CbhA from Clostridium thermocellum (CBM4-Ig-GH9-linker3-CBM3b-Doc) (protein)
chain: MKFRRSICTAVLLAVLLTLLVPTSVFALEDNSSTLPPYKNDLLYERTFDEGLCYPWHTCEDSGGKCSFDVVDVPGQPGNKAFAVTVLDKGQNRWSVQMRHRGLTLEQGHTYRVRLKIWADASCKVYIKIGQMGEPYAEYWNNKWSPYTLTAGKVLEIDETFVMDKPTDDTCEFTFHLGGELAATPPYTVYLDDVSLYDPEYTKPVEYILPQPDVRVNQVGYLPEGKKVATVVCNSTQPVKWQLKNAAGVVVLEGYTEPKGLDKDSQDYVHWLDFSDFATEGIGYYFELPTVNSPTNYSHPFDIRKDIYTQMKYDALAFFYHKRSGIPIEMPYAGGEQWTRPAGHIGIEPNKGDTNVPTWPQDDEYAGIPQKNYTKDVTGGWYDAGDHGKYVVNGGIAVWTLMNMYERAKIRGLDNWGPYRDGGMNIPEQNNGYPDILDEARWEIEFFKKMQVTEKEDPSIAGMVHHKIHDFRWTALGMLPHEDPQPRYLRPVSTAATLNFAATLAQSARLWKDYDPTFAADCLEKAEIAWQAALKHPDIYAEYTPGSGGPGGGPYNDDYVGDEFYWAACELYVTTGKDEYKNYLMNSPHYLEMPAKMGENGGANGEDNGLWGCFTWGTTQGLGTITLALVENGLPATDIQKARNNIAKAADRWLENIEEQGYRLPIKQAEDERGGYPWGSNSFILNQMIVMGYAYDFTGDSKYLDGMFDGISYLLGRNAMDQSYVTGYGERPLQNPHDRFWTPQTSKRFPAPPPGIISGGPNSRFEDPTINAAVKKDTPPQKCFIDHTDSWSTNEITVNWNAPFAWVTAYLDEQYTDSETDKVTIDSPVAGERFEAGKDINISATVKSKTPVSKVEFYNGDTLISSDTTAPYTAKITGAAVGAYNLKAVAVLSDGRRIESPVTPVLVKVIVKPTVKLTAPKSNVVAYGNEFLKITATASDSDGKISRVDFLVDGEVIGSDREAPYEYEWKAVEGNHEISVIAYDDDDAASTPDSVKIFVKQARDVKVQYLCENTQTSTQEIKGKFNIVNTGNRDYSLKDIVLRYYFTKEHNSQLQFICYYTPIGSGNLIPSFGGSGDEHYLQLEFKDVKLPAGGQTGEIQFVIRYADNSFHDQSNDYSFDPTIKAFQDYGKVTLYKNGELVWGTPPGGTEPEEPEEPAIVYGDCNDDGKVNSTDVAVMKRYLKKENVNINLDNADVNADGKVNSTDFSILKRYVMKNIEELPYR
yield of soluble sugar from Avicel after 119 hour digestion, with the adaptor relative to without it [2]: increased by a factor of only 1.09

Source: US20140017734
